Laboratory results as given in PMC10397247.
Blank lines part the entries; values can stand above or below the binder they belong to.

How the values were obtained:
4H446-AA = molecular target: T1, 4H446-AA; test: two-hybrid library CCmax; conditions: mean of both orientations;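 note: natural log of median RNA to DNA barcode read ratio; higher means stronger binding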
T1 chain: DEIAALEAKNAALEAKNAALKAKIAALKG

4H2728-AA = molecular target: T2, 4H2728-AA; test: two-hybrid library CCmax;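 note: natural log of median RNA to DNA barcode read ratio; higher means stronger binding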
T2 chain: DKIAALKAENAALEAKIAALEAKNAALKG

4H3939-AA = molecular target: T3, 4H3939-AA; test: two-hybrid library CCmax; conditions: mean of both orientations;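 note: natural log of median RNA to DNA barcode read ratio; higher means stronger binding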
T3 chain: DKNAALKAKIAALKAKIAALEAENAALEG

4H2774-AA = molecular target: T4, 4H2774-AA; test: two-hybrid library CCmax; conditions: mean of both orientations;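 note: natural log of median RNA to DNA barcode read ratio; higher means stronger binding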
T4 chain: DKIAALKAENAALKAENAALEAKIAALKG

4H464-AA = molecular target: T5, 4H464-AA; test: two-hybrid library CCmax; conditions: mean of both orientations;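 note: natural log of median RNA to DNA barcode read ratio; higher means stronger binding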
T5 chain: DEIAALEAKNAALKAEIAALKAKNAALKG

4H483-AA = molecular target: T6, 4H483-AA; test: two-hybrid library CCmax; conditions: mean of both orientations;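 note: natural log of median RNA to DNA barcode read ratio; higher means stronger binding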
T6 chain: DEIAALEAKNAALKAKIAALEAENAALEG

4H380-AA = molecular target: T7, 4H380-AA; test: two-hybrid library CCmax; conditions: mean of both orientations
T7 chain: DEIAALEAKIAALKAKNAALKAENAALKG

4H3595-AA = molecular target: T8, 4H3595-AA; test: two-hybrid library CCmax; conditions: mean of both orientations
T8 chain: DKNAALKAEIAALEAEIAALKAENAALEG

4H3629-AA = molecular target: T9, 4H3629-AA; test: two-hybrid library CCmax; conditions: mean of both orientations
T9 chain: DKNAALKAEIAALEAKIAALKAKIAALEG

4H2961-AA = molecular target: T10, 4H2961-AA; test: two-hybrid library CCmax; conditions: mean of both orientations
T10 chain: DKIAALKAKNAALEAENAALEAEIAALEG

4H3969-AA = molecular target: T11, 4H3969-AA; test: two-hybrid library CCmax; conditions: mean of both orientations
T11 chain: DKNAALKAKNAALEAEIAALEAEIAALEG

4H3782-AA = molecular target: T12, 4H3782-AA; test: two-hybrid library CCmax; conditions: mean of both orientations
T12 chain: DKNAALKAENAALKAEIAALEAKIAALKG

4H63-AA = molecular target: T13, 4H63-AA; test: two-hybrid library CCmax; conditions: mean of both orientations
T13 chain: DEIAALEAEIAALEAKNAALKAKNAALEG

4H3129-AA = molecular target: T14, 4H3129-AA; test: two-hybrid library CCmax; conditions: mean of both orientations
T14 chain: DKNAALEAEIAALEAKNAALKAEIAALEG

4H3049-AA = molecular target: T15, 4H3049-AA; test: two-hybrid library CCmax; conditions: mean of both orientations
T15 chain: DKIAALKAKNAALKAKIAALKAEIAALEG

4H2903-AA = molecular target: T16, 4H2903-AA; test: two-hybrid library CCmax; conditions: mean of both orientations
T16 chain: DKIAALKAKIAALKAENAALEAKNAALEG

4H341-AA = molecular target: T17, 4H341-AA; test: two-hybrid library CCmax; conditions: mean of both orientations
T17 chain: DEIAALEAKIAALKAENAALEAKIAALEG

4H3414-AA = molecular target: T18, 4H3414-AA; test: two-hybrid library CCmax; conditions: mean of both orientations
T18 chain: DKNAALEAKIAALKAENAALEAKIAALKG

O7 = molecular target: T19, O7; test: two-hybrid library CCNG1
T19 chain: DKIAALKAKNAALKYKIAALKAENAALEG

O8 = molecular target: T20, O8; test: two-hybrid library CCNG1
T20 chain: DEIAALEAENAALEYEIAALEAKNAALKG

O9 = molecular target: T21, O9; test: two-hybrid library CCNG1
T21 chain: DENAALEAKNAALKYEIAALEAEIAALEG

O6 = molecular target: T22, O6; test: two-hybrid library CCNG1
T22 chain: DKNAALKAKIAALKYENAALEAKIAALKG

O5 = molecular target: T23, O5; test: two-hybrid library CCNG1
T23 chain: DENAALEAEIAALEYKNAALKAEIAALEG

4H477-bN = molecular target: T24, 4H477-bN; test: two-hybrid library CCNG1
T24 chain: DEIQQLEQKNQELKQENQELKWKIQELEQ

4H3277-bN = molecular target: T25, 4H3277-bN; test: two-hybrid library CCNG1
T25 chain: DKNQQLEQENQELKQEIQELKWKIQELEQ

4H3057-bN = molecular target: T26, 4H3057-bN; test: two-hybrid library CCNG1
T26 chain: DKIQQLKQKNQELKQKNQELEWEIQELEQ

4H40-bN = molecular target: T27, 4H40-bN; test: two-hybrid library CCNG1
T27 chain: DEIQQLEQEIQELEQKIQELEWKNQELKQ

4H348-bN = molecular target: T28, 4H348-bN; test: two-hybrid library CCNG1
T28 chain: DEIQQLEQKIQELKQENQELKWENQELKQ

4H492-bN = molecular target: T29, 4H492-bN; test: two-hybrid library CCNG1
T29 chain: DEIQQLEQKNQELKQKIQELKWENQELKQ

4H741-bN = molecular target: T30, 4H741-bN; test: two-hybrid library CCNG1
T30 chain: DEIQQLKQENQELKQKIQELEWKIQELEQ

4H319-bN = molecular target: T31, 4H319-bN; test: two-hybrid library CCNG1
T31 chain: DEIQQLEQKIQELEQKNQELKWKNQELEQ

4H2915-bN = molecular target: T32, 4H2915-bN; test: two-hybrid library CCNG1
T32 chain: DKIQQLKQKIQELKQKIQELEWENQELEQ

interaction score (4H446-AA): -0.989 | interaction score (4H2728-AA): -0.514 | interaction score (4H3939-AA): -1.01 | interaction score (4H2774-AA): -1.68 | interaction score (4H464-AA): 0.651 | interaction score (4H483-AA): 2.24 | interaction score (4H380-AA): -1.69 | interaction score (4H3595-AA): -1.57 | interaction score (4H3629-AA): -0.438 | interaction score (4H2961-AA): -1.41 | interaction score (4H3969-AA): -1.14 | interaction score (4H3782-AA): -1.28 | interaction score (4H63-AA): -0.35 | interaction score (4H3129-AA): 0.939 | interaction score (4H3049-AA): 0.953 | interaction score (4H2903-AA): -1.25 | interaction score (4H341-AA): -0.899 | interaction score (4H3414-AA): -1.03
Binder: DKIAALKAENAALEAKIAALEAKNAALKG [4H2728-AA]

interaction score (O7): -2.16 | interaction score (O8): -2.4 | interaction score (O9): -2.25 | interaction score (O6): 1.32 | interaction score (O5): -2.36
Binder: DENAALEAEIAALEYKNAALKAEIAALEG [O5]

interaction score (4H477-bN): -2.75 | interaction score (4H3277-bN): -1.62 | interaction score (4H3057-bN): -0.568 | interaction score (4H40-bN): 1.52 | interaction score (4H348-bN): -0.904 | interaction score (4H492-bN): -1.44 | interaction score (4H741-bN): -1.16 | interaction score (4H319-bN): -3.47 | interaction score (4H2915-bN): 0.918
Binder: DKIQQLKQKIQELKQKIQELEWENQELEQ [4H2915-bN]
